These results are taken from article PMC11272584 (Nature Metabolism, 2024).

Where only a bound is given, the exact number is not on record here.

The target in one experiment is T1, GIPR R300W (Homo sapiens, UniProt P48546, R300W).
T1 construct: host or cells: HEK293
T1 sequence (P48546 22-466 R300W): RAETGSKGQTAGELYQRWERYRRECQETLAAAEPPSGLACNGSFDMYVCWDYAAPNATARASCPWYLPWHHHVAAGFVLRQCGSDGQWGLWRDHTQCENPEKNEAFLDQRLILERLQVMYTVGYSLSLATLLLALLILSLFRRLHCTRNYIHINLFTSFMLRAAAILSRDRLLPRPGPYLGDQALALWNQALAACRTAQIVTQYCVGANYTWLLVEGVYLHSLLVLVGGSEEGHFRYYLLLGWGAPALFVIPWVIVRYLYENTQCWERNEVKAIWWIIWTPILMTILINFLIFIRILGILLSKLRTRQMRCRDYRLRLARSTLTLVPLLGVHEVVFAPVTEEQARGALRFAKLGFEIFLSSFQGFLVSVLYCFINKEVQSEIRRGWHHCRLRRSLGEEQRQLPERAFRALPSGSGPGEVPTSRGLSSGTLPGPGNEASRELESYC
The experiment can be described thus: cAMP accumulation. The class given is cell-based. (cAMP levels reflect the balance of adenylyl cyclase and phosphodiesterase activity.)

Experiment [1] deals with GIPR variants (groups). The experiment can be described thus: cAMP accumulation. The class given is cell-based, human. The settings on record: for In vitro groups (cAMP): cAMP part of the in vitro group; for percentage_camp: cAMP production compared with WT; for Beta, cAMP: in vitro cAMP production per GIPR variant.
In experiment [2] the test system is GIPR variants (groups). The experiment can be described thus: β-arrestin 2 recruitment (BRET).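 For all read-outs here: BRET readout of β-arrestin 2 recruitment in transiently transfected HEK293 cells expressing WT GIPR or a GIPR variant plus GPCR kinase 2, Rluc8 donor and citrine acceptor.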 Particulars: for In vitro groups (β-arrestin): arr part of the in vitro group; for Beta, Barr: in vitro β-arrestin recruitment per GIPR variant.
The target in the next experiment is T2, GIPR I378M (Homo sapiens, UniProt P48546, I378M).
T2 construct: host or cells: HEK293
T2 sequence (P48546 22-466 I378M): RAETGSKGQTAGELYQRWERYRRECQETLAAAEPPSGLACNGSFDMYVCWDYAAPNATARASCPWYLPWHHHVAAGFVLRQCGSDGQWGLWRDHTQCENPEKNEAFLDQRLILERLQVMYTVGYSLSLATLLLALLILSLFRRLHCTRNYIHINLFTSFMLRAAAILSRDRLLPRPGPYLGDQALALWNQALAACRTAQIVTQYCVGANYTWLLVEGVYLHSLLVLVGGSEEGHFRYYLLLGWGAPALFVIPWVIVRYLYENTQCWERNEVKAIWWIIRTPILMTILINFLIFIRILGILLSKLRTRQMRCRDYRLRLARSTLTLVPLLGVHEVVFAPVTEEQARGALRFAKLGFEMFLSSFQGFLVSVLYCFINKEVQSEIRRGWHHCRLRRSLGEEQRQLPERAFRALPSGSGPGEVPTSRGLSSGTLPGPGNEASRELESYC
Put plainly: cAMP accumulation. The class given is cell-based.

The target in the next experiment is T3, GIPR E354Q (Homo sapiens, UniProt P48546, E354Q).
T3 construct: host or cells: HEK293
T3 sequence (P48546 22-466 E354Q): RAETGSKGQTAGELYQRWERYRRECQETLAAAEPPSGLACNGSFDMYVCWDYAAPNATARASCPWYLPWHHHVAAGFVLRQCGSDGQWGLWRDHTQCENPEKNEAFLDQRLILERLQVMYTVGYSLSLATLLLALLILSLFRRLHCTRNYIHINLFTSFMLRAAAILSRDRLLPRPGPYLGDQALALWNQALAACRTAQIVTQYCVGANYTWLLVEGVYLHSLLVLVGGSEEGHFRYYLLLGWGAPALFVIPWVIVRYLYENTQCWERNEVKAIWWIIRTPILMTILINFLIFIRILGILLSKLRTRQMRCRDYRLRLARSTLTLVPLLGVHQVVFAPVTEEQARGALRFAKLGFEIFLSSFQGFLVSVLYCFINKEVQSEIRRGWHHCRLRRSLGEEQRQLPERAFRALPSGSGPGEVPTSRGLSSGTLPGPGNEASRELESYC
Put plainly: cAMP accumulation. The class given is cell-based.

Another experiment concerns the target T4, GIPR L304R (Homo sapiens, UniProt P48546, L304R).
T4 construct: host or cells: HEK293
T4 sequence (P48546 22-466 L304R): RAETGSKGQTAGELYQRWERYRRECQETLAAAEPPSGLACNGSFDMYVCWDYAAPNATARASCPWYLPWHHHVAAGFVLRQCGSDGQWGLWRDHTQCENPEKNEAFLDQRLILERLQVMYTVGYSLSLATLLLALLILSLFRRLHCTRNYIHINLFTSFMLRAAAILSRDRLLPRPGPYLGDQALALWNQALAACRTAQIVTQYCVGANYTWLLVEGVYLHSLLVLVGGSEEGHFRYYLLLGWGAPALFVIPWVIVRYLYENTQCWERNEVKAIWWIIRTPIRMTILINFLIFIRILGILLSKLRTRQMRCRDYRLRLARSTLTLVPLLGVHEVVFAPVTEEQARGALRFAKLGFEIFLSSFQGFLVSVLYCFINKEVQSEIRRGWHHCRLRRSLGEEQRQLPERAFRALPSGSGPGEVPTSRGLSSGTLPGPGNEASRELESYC
Put plainly: cAMP accumulation. It is filed as cell-based.

A further experiment has as its target T5, GIPR R336P (Homo sapiens, UniProt P48546, R336P).
T5 construct: host or cells: HEK293
T5 sequence (P48546 22-466 R336P): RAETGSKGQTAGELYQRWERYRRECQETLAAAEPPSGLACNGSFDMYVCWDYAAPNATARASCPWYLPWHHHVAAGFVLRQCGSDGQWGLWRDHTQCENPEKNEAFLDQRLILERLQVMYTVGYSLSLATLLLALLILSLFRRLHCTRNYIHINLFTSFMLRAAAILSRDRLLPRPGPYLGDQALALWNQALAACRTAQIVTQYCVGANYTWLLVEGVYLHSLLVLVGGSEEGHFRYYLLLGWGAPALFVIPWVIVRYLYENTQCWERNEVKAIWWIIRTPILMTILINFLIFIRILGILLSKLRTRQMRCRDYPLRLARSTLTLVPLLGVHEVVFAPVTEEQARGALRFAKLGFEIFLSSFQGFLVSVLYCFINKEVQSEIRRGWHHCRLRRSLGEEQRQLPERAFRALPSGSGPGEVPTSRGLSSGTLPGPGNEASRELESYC
The experiment can be described thus: cAMP accumulation. The class given is cell-based.

Description for GIPR E354Q: (§1) HEK293 (CRL-1573, American Type Culture Collection) and β-arrestin 1/2 knockout cells, generated from HEK293A[48], were used for cAMP measurement, homologues competition binding and β-arrestin 2 recruitment. […] Both cell lines were cultured at 5% CO2 at 37 °C in Roswell Park Memorial Institute GlutaMAX-I supplemented with 10% fetal bovine serum, 180 units ml^−1 penicillin, and 45 g ml^−1 streptomycin. For the cAMP and binding experiments, cells were transfected with the calcium phosphate precipitation method[49].
(§2) cAMP production was measured with the DiscoverX Hithunter cAMP assay according to the manufacturer’s protocol (DiscoverX). […] On the day of the assay, the cells were washed twice with HEPES-buffered saline (HBS) and incubated with HBS and 1 mM 3-isobutyl-1-methylxanthine for 30 min at 37 °C. […] After the incubation, the assay medium was removed from the plate and the cells were washed with 30 µl PBS and treated with 40 µl enzyme donor–lysis buffer–chemiluminescent reagents and 10 µl cAMP antibodies for 60 min before 40 µl enzyme acceptor solution added. After a 3-h incubation on a shaking table in the dark, the cAMP accumulation was measured based on luminescence with a Perkin Elmer EnVision 2104 Multilabel Microplate Reader. […]
Description for GIPR I378M: as §1, §2
Description for GIPR L304R: as §1, §2
Description for GIPR R300W: as §1, §2
Description for GIPR R336P: as §1, §2

B1: R300W (protein)
chain: RAETGSKGQTAGELYQRWERYRRECQETLAAAEPPSGLACNGSFDMYVCWDYAAPNATARASCPWYLPWHHHVAAGFVLRQCGSDGQWGLWRDHTQCENPEKNEAFLDQRLILERLQVMYTVGYSLSLATLLLALLILSLFRRLHCTRNYIHINLFTSFMLRAAAILSRDRLLPRPGPYLGDQALALWNQALAACRTAQIVTQYCVGANYTWLLVEGVYLHSLLVLVGGSEEGHFRYYLLLGWGAPALFVIPWVIVRYLYENTQCWERNEVKAIWWIIWTPILMTILINFLIFIRILGILLSKLRTRQMRCRDYRLRLARSTLTLVPLLGVHEVVFAPVTEEQARGALRFAKLGFEIFLSSFQGFLVSVLYCFINKEVQSEIRRGWHHCRLRRSLGEEQRQLPERAFRALPSGSGPGEVPTSRGLSSGTLPGPGNEASRELESYC
B1: the “Efficacy at 100pmol (cAMP)” value with GIPR R300W was determined as 0.0005276. Also, in the experiment with GIPR variants (groups) [1], the “In vitro groups (cAMP)” value is on record as “LoF_camp”; the percentage_camp was under 50% cAMP; the “Beta, cAMP” value was found to be 0. In the experiment with GIPR variants (groups) [2], the “In vitro groups (β-arrestin)” value is reported as “LoF_arr” and the “Beta, Barr” value is given as 0.

B2: I378M (protein)
chain: RAETGSKGQTAGELYQRWERYRRECQETLAAAEPPSGLACNGSFDMYVCWDYAAPNATARASCPWYLPWHHHVAAGFVLRQCGSDGQWGLWRDHTQCENPEKNEAFLDQRLILERLQVMYTVGYSLSLATLLLALLILSLFRRLHCTRNYIHINLFTSFMLRAAAILSRDRLLPRPGPYLGDQALALWNQALAACRTAQIVTQYCVGANYTWLLVEGVYLHSLLVLVGGSEEGHFRYYLLLGWGAPALFVIPWVIVRYLYENTQCWERNEVKAIWWIIRTPILMTILINFLIFIRILGILLSKLRTRQMRCRDYRLRLARSTLTLVPLLGVHEVVFAPVTEEQARGALRFAKLGFEMFLSSFQGFLVSVLYCFINKEVQSEIRRGWHHCRLRRSLGEEQRQLPERAFRALPSGSGPGEVPTSRGLSSGTLPGPGNEASRELESYC
Turning to B2, in the experiment with GIPR variants (groups) [1], the “In vitro groups (cAMP)” value is “WT-like_camp”; the percentage_camp was over 50% cAMP; the “Beta, cAMP” value is listed as 0.8167. Further, the “Efficacy at 100pmol (cAMP)” value with GIPR I378M is 0.8167. For the same molecule, in the experiment on GIPR variants (groups) [2], the “In vitro groups (β-arrestin)” value is given as “GoF_arr” and the “Beta, Barr” value was determined as 1.357.

B3: E354Q (protein)
chain: RAETGSKGQTAGELYQRWERYRRECQETLAAAEPPSGLACNGSFDMYVCWDYAAPNATARASCPWYLPWHHHVAAGFVLRQCGSDGQWGLWRDHTQCENPEKNEAFLDQRLILERLQVMYTVGYSLSLATLLLALLILSLFRRLHCTRNYIHINLFTSFMLRAAAILSRDRLLPRPGPYLGDQALALWNQALAACRTAQIVTQYCVGANYTWLLVEGVYLHSLLVLVGGSEEGHFRYYLLLGWGAPALFVIPWVIVRYLYENTQCWERNEVKAIWWIIRTPILMTILINFLIFIRILGILLSKLRTRQMRCRDYRLRLARSTLTLVPLLGVHQVVFAPVTEEQARGALRFAKLGFEIFLSSFQGFLVSVLYCFINKEVQSEIRRGWHHCRLRRSLGEEQRQLPERAFRALPSGSGPGEVPTSRGLSSGTLPGPGNEASRELESYC
On to B3, for which, in the experiment with GIPR E354Q, the “Efficacy at 100pmol (cAMP)” value worked out at 1.125. For the same molecule, in the experiment with GIPR variants (groups) [1], the “In vitro groups (cAMP)” value is “WT-like_camp”; the percentage_camp is given as over 50% cAMP; the “Beta, cAMP” value came to 1.125. In the experiment on GIPR variants (groups) [2], the “In vitro groups (β-arrestin)” value was “WT-like_arr” and the “Beta, Barr” value was determined as 0.9822.

B4: L304R (protein)
chain: RAETGSKGQTAGELYQRWERYRRECQETLAAAEPPSGLACNGSFDMYVCWDYAAPNATARASCPWYLPWHHHVAAGFVLRQCGSDGQWGLWRDHTQCENPEKNEAFLDQRLILERLQVMYTVGYSLSLATLLLALLILSLFRRLHCTRNYIHINLFTSFMLRAAAILSRDRLLPRPGPYLGDQALALWNQALAACRTAQIVTQYCVGANYTWLLVEGVYLHSLLVLVGGSEEGHFRYYLLLGWGAPALFVIPWVIVRYLYENTQCWERNEVKAIWWIIRTPIRMTILINFLIFIRILGILLSKLRTRQMRCRDYRLRLARSTLTLVPLLGVHEVVFAPVTEEQARGALRFAKLGFEIFLSSFQGFLVSVLYCFINKEVQSEIRRGWHHCRLRRSLGEEQRQLPERAFRALPSGSGPGEVPTSRGLSSGTLPGPGNEASRELESYC
Turning to B4, in the experiment on GIPR variants (groups) [1], the “In vitro groups (cAMP)” value is “LoF_camp”; the percentage_camp was under 50% cAMP; the “Beta, cAMP” value came out at 0.2373. Also, in the experiment with GIPR variants (groups) [2], the “In vitro groups (β-arrestin)” value was “LoF_arr” and the “Beta, Barr” value was determined as 0.1329. In the experiment with GIPR L304R, the “Efficacy at 100pmol (cAMP)” value came to 0.2373.

B5: R336P (protein)
chain: RAETGSKGQTAGELYQRWERYRRECQETLAAAEPPSGLACNGSFDMYVCWDYAAPNATARASCPWYLPWHHHVAAGFVLRQCGSDGQWGLWRDHTQCENPEKNEAFLDQRLILERLQVMYTVGYSLSLATLLLALLILSLFRRLHCTRNYIHINLFTSFMLRAAAILSRDRLLPRPGPYLGDQALALWNQALAACRTAQIVTQYCVGANYTWLLVEGVYLHSLLVLVGGSEEGHFRYYLLLGWGAPALFVIPWVIVRYLYENTQCWERNEVKAIWWIIRTPILMTILINFLIFIRILGILLSKLRTRQMRCRDYPLRLARSTLTLVPLLGVHEVVFAPVTEEQARGALRFAKLGFEIFLSSFQGFLVSVLYCFINKEVQSEIRRGWHHCRLRRSLGEEQRQLPERAFRALPSGSGPGEVPTSRGLSSGTLPGPGNEASRELESYC
For B5, in the experiment on GIPR variants (groups) [1], the “In vitro groups (cAMP)” value is “LoF_camp”; the percentage_camp is listed as under 50% cAMP; the “Beta, cAMP” value is 0.3193. In addition, in the experiment with GIPR variants (groups) [2], the “In vitro groups (β-arrestin)” value was “LoF_arr” and the “Beta, Barr” value is 0.2102. Besides, the “Efficacy at 100pmol (cAMP)” value in the experiment with GIPR R336P is 0.3193.
